Data on two molecules can be found in patent publication US20190361013A1 (SCUOLA NORMALE SUPERIORE, published 2019).

Holding throughout (assay): yeast two-hybrid (IACT), VP16 prey vs LexA bait, secondary screening
One test addresses T1, LexA-Integrase-p300wt-HA (Integrase constitutively acetylated in cis by the fused p300 wt HAT; positions not stated).
T1 construct: Tethered catalysis bait expressed in L40 yeast from pMICBD1; also called IN-HATwt-HA; screening bait
T1 chain: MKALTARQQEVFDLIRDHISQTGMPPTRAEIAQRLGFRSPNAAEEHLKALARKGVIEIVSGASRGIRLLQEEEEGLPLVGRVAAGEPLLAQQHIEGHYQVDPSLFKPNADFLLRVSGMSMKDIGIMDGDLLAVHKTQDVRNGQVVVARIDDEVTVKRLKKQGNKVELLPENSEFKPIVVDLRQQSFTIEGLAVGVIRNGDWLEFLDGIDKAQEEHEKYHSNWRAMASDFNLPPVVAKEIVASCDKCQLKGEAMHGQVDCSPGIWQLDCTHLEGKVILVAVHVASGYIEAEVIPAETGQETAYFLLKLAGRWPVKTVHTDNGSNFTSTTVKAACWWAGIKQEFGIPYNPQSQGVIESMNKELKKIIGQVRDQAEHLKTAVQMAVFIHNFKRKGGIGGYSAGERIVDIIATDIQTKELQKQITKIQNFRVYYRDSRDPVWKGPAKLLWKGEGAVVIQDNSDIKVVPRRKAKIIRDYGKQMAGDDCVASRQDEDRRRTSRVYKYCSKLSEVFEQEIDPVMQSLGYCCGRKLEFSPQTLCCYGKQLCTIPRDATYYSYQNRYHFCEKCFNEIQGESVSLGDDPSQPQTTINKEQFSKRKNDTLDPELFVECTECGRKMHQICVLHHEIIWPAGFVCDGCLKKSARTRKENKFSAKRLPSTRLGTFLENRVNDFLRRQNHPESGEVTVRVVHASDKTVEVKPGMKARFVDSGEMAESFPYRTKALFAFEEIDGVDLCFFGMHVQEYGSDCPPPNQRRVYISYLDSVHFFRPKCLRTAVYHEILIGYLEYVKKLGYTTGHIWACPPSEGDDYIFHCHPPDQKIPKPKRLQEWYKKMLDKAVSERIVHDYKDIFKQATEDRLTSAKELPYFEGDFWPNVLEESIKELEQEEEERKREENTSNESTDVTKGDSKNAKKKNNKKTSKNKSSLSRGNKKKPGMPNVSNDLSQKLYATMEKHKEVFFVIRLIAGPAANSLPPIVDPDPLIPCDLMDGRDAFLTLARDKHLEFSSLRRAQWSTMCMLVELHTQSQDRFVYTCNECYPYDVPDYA

In the next test the target is T2, LexA-IN.
T2 construct: Non-acetylated Integrase bait; also called LexA-Integrase; IN-stop (non-acetylated)
T2 chain: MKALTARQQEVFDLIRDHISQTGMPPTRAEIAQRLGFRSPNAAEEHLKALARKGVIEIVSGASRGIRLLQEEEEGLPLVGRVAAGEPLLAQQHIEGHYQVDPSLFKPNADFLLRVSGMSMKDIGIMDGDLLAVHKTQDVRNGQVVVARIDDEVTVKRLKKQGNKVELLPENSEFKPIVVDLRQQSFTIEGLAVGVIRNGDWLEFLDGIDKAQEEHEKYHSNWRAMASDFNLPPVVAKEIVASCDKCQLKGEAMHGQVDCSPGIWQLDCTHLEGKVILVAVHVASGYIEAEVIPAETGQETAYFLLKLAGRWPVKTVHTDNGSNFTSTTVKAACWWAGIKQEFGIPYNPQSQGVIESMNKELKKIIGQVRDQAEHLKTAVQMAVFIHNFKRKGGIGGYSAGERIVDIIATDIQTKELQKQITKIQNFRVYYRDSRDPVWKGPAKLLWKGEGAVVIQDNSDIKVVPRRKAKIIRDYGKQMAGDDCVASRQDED

The target of test [1] is T3, LexA-HistoneH3-Gcn5mut-HA.
T3 construct: Control bait; H3 not acetylated; also called LexA-H3-Gcn5mut-HA

The target in a further test is T4, LexA-Gcn5mut-HA.
T4 construct: Control bait without H3

The target of another test is T5, LexA-Gcn5wt-HA.
T5 construct: Control bait without H3

B1: VH-12A (VHH, not shown: large carriers)
VHH: QVQLQQSGAELVKPGASVKLSCTASGFNIKDTYMHWVKQRPEQGLEWIGRIDPANGNTKYDPKFQGKATITADTSSNTAYLQLSSLTSEDTAVYYCASLLWWGQGTLVTVSA
notes: Single mouse VH domain split from ScFv-12A, as yeast two-hybrid prey; also called VH-12X
As for B1, the binding result with LexA-Integrase-p300wt-HA and in the test with LexA-IN was “binds” in each case.

B2: ScFv-58F (scFv, not shown: large carriers)
scFv: DILMTQSPAIMSASPGEKVTMTCRASSSVSSSYLHWYQQKSGASPKLWIYSTSNLASGVPARFSGSGSGTSYSLTISSVEAEDAATYYCQQYSGYPWTSGGGTKLEIKRSGGSTSGSGKPGSGEGSSSTEVKVEESGGGLVQPGGSMKLSCVASGFTFSNYWMNWVRQSPEKGLEWVAEIRLKSNNYATHYAESVKGRFTISRDDSESSVYLQMNNLRAEDTGIYYCTRRNGPSSRAMDYWGQGTTVTVSS
notes: Yeast two-hybrid prey from mouse naive SPLINT ScFv library; also called ScFv-58 intrabody
Take B2: the binding result (in test [1]; with LexA-Gcn5mut-HA; with LexA-Gcn5wt-HA) was “no binding” in each case.
